In test [1] the target is human insulin receptor complexed with human insulin (human) (UniProt P06213). Nature of the test: FACS, serum-starved CHO-K1 cells expressing human INSR, with insulin.
For test [2] the target is unchanged. Put plainly: FACS, CHO-K1 human INSR cells, signal with insulin divided by signal without insulin.
For test [3] the target is unchanged. Nature of the test: FACS, serum-starved CHO-K1 cells expressing human INSR, with insulin [cont'd].
Test [4] has the same target. Nature of the test: FACS, CHO-K1 human INSR cells, signal with insulin divided by signal without insulin [cont'd].
The target of test [5] is mouse insulin receptor (mouse) (UniProt P15208). Put plainly: FACS, serum-starved CHO-K1 cells expressing mouse INSR, no insulin.
In test [6] the target is mouse insulin receptor complexed with human insulin (mouse; human) (UniProt P15208). Nature of the test: FACS, serum-starved CHO-K1 cells expressing mouse INSR, with insulin.
The target is the same in test [7]. Put plainly: FACS, CHO-K1 mouse INSR cells, signal with insulin divided by signal without insulin.
In test [8] the target is human insulin receptor complexed with human insulin (human) (UniProt P06213). Nature of the test: FACS competition on hINSR8-CHOK1 cells with insulin; competitor Ab019.
Test [9] deals with human insulin receptor (human) (UniProt P06213). Nature of the test: FACS, serum-starved CHO-K1 cells expressing human INSR, no insulin.
The target of test [10] is mouse insulin receptor (mouse) (UniProt P15208). Nature of the test: FACS, serum-starved CHO-K1 cells expressing mouse INSR, no insulin [cont'd].

Among the data in patent publication US20160009800A1 are FACS area under log transformed data MFI, FACS area under log transformed data MFI ratio (+insulin/-insulin) and percent competition values, retold here.

Substitutions are numbered along the chain they refer to.

B1: Ab065 (antibody, IgG2, V domains shown)
VH: QVQLVQSGAEVKKPGESLKISCKGSGYSFTSYWIGWVRQMPGKGLEWMGIIYPGDSDTRYSPSFQGQVTISADKSISTAYLQWSSLKASDTAMYYCARHELGIDYWGQGTLVTVSS
VL: QAGLTQPPSVSKGLRQTATLTCTGDNNIVGDQGAAWLQQHQGHPPKLLSFRNNSRPSGISERFSASRSRNTASLTITRLQPEDAADYYCSAWDSFLSAWVFGGGTKLTVL
With B1, in test [1], the FACS area under log transformed data MFI turned out to be 57. For the same molecule, the FACS area under log transformed data MFI ratio (+insulin/-insulin) in [2] amounted to 0.28.

B2: Ab071 (antibody, IgG2, V domains shown)
VH: B1 VH with Q1E, H99W, E100D, L101A, I103Y, D104S, Y105P
VL: SSELTQDPAVSVALGQTVRITCQGDSLRSYYASWYQQKPGQAPVLVFYGKNNRPSGIPGRFSGSKSGNTASLTITGAQAEDEADYYCNSRDSSGNHWVFGGGTKLTVL
The molecule B2 showed an FACS area under log transformed data MFI in [3] of 194. For the same molecule, in test [4], the FACS area under log transformed data MFI ratio (+insulin/-insulin) was 0.4.

B3: Ab050 (antibody, IgG2, V domains shown)
VH: QVQLVQSGAELKKPGATVKISCKVSGYTFGDYHMHWVKQAPGKGLEWMGLVDPENGETEYGEKFQDRITMAADTSTDTAYMELSSLRSEDTAVYYCARSPSSSGYFRVDGFDIWGQGTMVTVSS
VL: NFMLTQPHSVSESPGKTVSISCTGSSGSIGSNYVQWYQQRPGSAPTTVIYEDNQRPSGVPDRFSGSIDSSSNSASLTISGLKTEDEADYYCQSYYNSNVVFGGGTKLTVL
In [1], B3 gave an FACS area under log transformed data MFI of 81. In addition, in test [2], the FACS area under log transformed data MFI ratio (+insulin/-insulin) worked out at 0.32.

B4: Ab072 (antibody, IgG2, V domains shown)
VH: QMQLVQSGAEVKKPGESLKISCKGSGYSFTGYWIGWVRQMPGKGLEWMGIIYPGDSDTRYSPSFQGQVTISADKSISTAYLQWSSLKVSDTAMYYCGRISTPYAFDIWGQGTMVTVSS
VL: SYVLTQPPSASGTPGQRVTISCSGSNSNIGSNFVTWYQQLPGAAPKLLIYTNSQRPSGVPDRFSGSRSGTSASLAISGLQSEDEADYFCAAWDDSLNGPVFGGGTQLTVL
B4 gave an FACS area under log transformed data MFI in [3] of 84. Also, in test [4], the FACS area under log transformed data MFI ratio (+insulin/-insulin) was determined as 0.37.

B5: Ab056 (antibody, IgG2, V domains shown)
VH: QVQLVQSGSEVKKPGASVKVSCKASGYTFTNSYMHWVRQAPGQGLEWMGIINPSAGTSYAQKFQGRVTMTRDTSTSTVYMELSSLKSEDTAVYYCARDVGWLPGDYWGQGTLVTVSS
VL: QSALTQPASVSESPGQSITISCTGTGSDIGTYNLVSWYQHHPGKAPKLMIYEVTKRPSGVSNRFSGSKSGNTASLTISGLQAEDEADYYCSSYTSSSTLYVFGTGTKLTVL
As to B5, the FACS area under log transformed data MFI was found to be 21 in test [5] and 41 in test [6]. Also, in [7], the FACS area under log transformed data MFI ratio (+insulin/-insulin) was 1.98.

B6: Ab082 (antibody, IgG2, V domains shown)
VH: QMQLVQSGAEVKKPGESLKISCKGSGYSFTSYWIGWVRQMPGKGLEWMGIIYPGDSDTRYSPSFQGQVTISADKSISTAYLQWSSLKASDTAMYYCARWGPDAFDIWGQGTMVTVSS
VL: EIVLTQSPDFQSVTPKETVTISCRASQNIGVSLHWYQQKPDQSPKVLIKYASQSLSGVPSRFSGTGSGTDFTLTIKSLEAEDAATYYCLQTSSLPWTFGQGTKVEIK
With B6, the FACS area under log transformed data MFI in [3] worked out at 236. Besides, the FACS area under log transformed data MFI ratio (+insulin/-insulin) in test [4] was determined as 0.59.

B7: Ab059 (antibody, IgG2, V domains shown)
VH: EVQLVQSGAEVKKPGSSVKVSCKASGGTFSSYAISWVRQAPGQGLEWMGRIIPIFGIANYAQKFQGRVTITADKSTSTAYMELSSLRSEDTAVYYCAREPDYDFWNDAFDIWGQGTMVTVSS
VL: QAVLTQPASLSASPGASASLTCTLRSDISVGVYRISWYQQKPGSPPQYLLSYNSDSNNHQGSGVPSRFSGSKDASANAGILLISGLQSEDEADYYCMIWHINAWVFGGGTKVTVL
Take B7: the FACS area under log transformed data MFI was 14 in test [5] and 13 in test [6].

B8: Ab061 (antibody, IgG2, V domains shown)
VH: QMQLVQSGAEVKKTGESLKISCQGYGYRFTDNWIGWVRQMPGRGLEWMGIIYPGDSETRYSPSFQGQVTISADKSISTAYLEWSSLKASDTAMYYCARHAPLAVAGMALGDWGQGTLVTVSS
VL: QTVVTQEPSFSVSPGGTVTLTCGLSSGSVSTGYSPGWYQQTPGQAPRTLVYNTNTRSSGVPDRFSGSILGNKAALTITGAQADDESDYYCALYMGSGTYVFGGGTKLTVL
Take B8: the percent competition in test [8] was less than 30%. Further, the FACS area under log transformed data MFI in test [1] came to 59. Besides, the FACS area under log transformed data MFI ratio (+insulin/-insulin) in [2] stood at 0.29.

B9: Ab057 (antibody, IgG2, V domains shown)
VH: B8 VH with T14P, Q23K, T30S, E82Q
VL: QTVVTQEPSFSVSPGGTVTLTCGLTSGSVSTSYYPSWYQQTPGQAPRMLVHSTSTRYSGVPDRFSGSILGNKAALTITGAQADDESDYYCALYMGGGIYVFGGGTQLTVL
On to B9, for which the FACS area under log transformed data MFI in test [9] came out at 155; in test [1], 87. For the same molecule, the FACS area under log transformed data MFI ratio (+insulin/-insulin) in [2] was 0.56.

B10: Ab052 (antibody, IgG2, V domains shown)
VH: EVQLVQSGAEVKKPGESLKISCKGSGYRFTSYWIGWVRQMPGRGLEWMGIIYPGDSDTRYSPSFQGQVTISVDKSISTAYLQWSSLKASDTAMYYCATHHASGRGLDPWGQGTLVTVSS
VL: QAMLTQPASLSASPGASASLTCTLRSGINVVAYNIYWYRQKSGSPPQSVLRYKSDSDSERDSGVPSRFSGSKDVSANAGILLISGLQSEDEADYYCLIWHNSAWVFGGGTQLTVL
In test [1], B10 came in with an FACS area under log transformed data MFI of 134. Besides, the FACS area under log transformed data MFI ratio (+insulin/-insulin) in test [2] was 0.3.

B11: Ab069 (antibody, IgG2, V domains shown)
VH: EVQLVQSGAEVKKPGESLKISCKGSGYSFTSYWIGWVRQMPGKGLEWMGIIYPGDSDTRYSPSFQGQVTISADKSISIAYLQWSSLKASDTAMYYCARLGRGYYGMDVWGQGTTVTVSS
VL: B2 VL with F47I, G59D, K65R, W97V, L105V
On to B11, for which the FACS area under log transformed data MFI in test [1] was 146. Also, in [2], the FACS area under log transformed data MFI ratio (+insulin/-insulin) came out at 0.41.

B12: Ab070 (antibody, IgG2, V domains shown)
VH: B11 VH with I78T, A79S, K87R, R101S, Y103W, M106N, V108Y, T114L
VL: B2 VL with A32T, F47I, Y48F, G59D, K65S, H96Y, W97A, K104Q
For the molecule B12, in test [3], the FACS area under log transformed data MFI is 150. For the same molecule, in test [4], the FACS area under log transformed data MFI ratio (+insulin/-insulin) was 0.53.

B13: Ab078 (antibody, IgG2, V domains shown)
VH: QVQLVQSGGGLVQPGGSLRLSCAASGFTFSSYSMNWVRQAPGKGLEWVSSISSSSSYIYYADSVKGRFTISRDNAKNSLYLQMNSLRAEDTAVYYCARDQGGELLGFTGYFDYWGQGTLVTVSS
VL: DIQLTQSPSSLSASVGDRVTITCRASQGISSALAWYQQKPGKAPKVLIYDASSLERGVPSRFSGSGTGTDFTLTISSLQPEDFASYYCHQFNSYPDTFGQGTRLEIK
Turning to B13, the FACS area under log transformed data MFI in [10] amounted to 12.
